Results taken from patent US20250043302A1, “MUTATED HYDROXYPHENYLPYRUVATE DIOXYGENASE POLYPEPTIDE, AND CODING GENE AND USE THEREOF” (BEIJING DABEINONG BIOTECHNOLOGY CO., LTD., priority 2021, published 2025).

Key:
Format in all cases: in vivo
[1] = system: Arabidopsis thaliana T1 plants; test: Topramezone tolerance of transgenic Arabidopsis thaliana T1 plants (spray, bleached leaf area grade, damage score); settings: Table 10; for Classification and statistics of the grade of pesticide damage Grade 0: number of plants at grade 0; for Classification and statistics of the grade of pesticide damage Grade 1: number of plants at grade 1; for Classification and statistics of the grade of pesticide damage Grade 2: number of plants at grade 2; for Classification and statistics of the grade of pesticide damage Grade 3: number of plants at grade 3; for Scores: pesticide damage score
Outline: (§1)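 Damage was assessed by bleaching grade (0 none; 1 <50%; 2 >50%; 3 100% of leaf area) one week after spraying. Sprays on 18-day-old T1 and wild-type plants used field-rate multiples: topramezone 25–200, isoxaflutole 35–280, mesotrione 52.5–420 g ai/ha.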

[2] = system: Arabidopsis thaliana T1 plants; test: Isoxaflutole tolerance of transgenic Arabidopsis thaliana T1 plants (spray, bleached leaf area grade, damage score); settings: Table 11; for Classification and statistics of the grade of pesticide damage Grade 0: number of plants at grade 0; for Classification and statistics of the grade of pesticide damage Grade 1: number of plants at grade 1; for Classification and statistics of the grade of pesticide damage Grade 2: number of plants at grade 2; for Classification and statistics of the grade of pesticide damage Grade 3: number of plants at grade 3; for Scores: pesticide damage score;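 on Scores: Weighted damage index from 0 to 100 where higher means more damage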
Outline: as §1

[3] = system: Arabidopsis thaliana T1 plants; test: Mesotrione tolerance of transgenic Arabidopsis thaliana T1 plants (spray, bleached leaf area grade, damage score); design: Scores: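 damage score 0-100 computed as Σ(N×S)/(T×M)×100 over grades 0-3 with higher meaning more damage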; settings: Table 12; for Classification and statistics of the grade of pesticide damage Grade 0: number of plants at grade 0; for Classification and statistics of the grade of pesticide damage Grade 1: number of plants at grade 1; for Classification and statistics of the grade of pesticide damage Grade 2: number of plants at grade 2; for Classification and statistics of the grade of pesticide damage Grade 3: number of plants at grade 3; for Scores: pesticide damage score
Outline: as §1

B1: HPPDm-1-02: nucleotide sequence encoding Avena sativa HPPD with A107 deletion+F372A+F383W; vector DBN11780 (nucleic acid)
DNA: ATGCCACCTACTCCAGCTACAGCTACTGGTGCTGCTGCTGCTGCCGTTACTCCTGAGCACGCTGCCAGGTCATTCCCCAGGGTGGTTCGCGTGAACCCCAGATCTGATAGGTTCCCAGTTCTGAGCTTCCACCATGTTGAGCTGTGGTGCGCTGATGCTGCTTCTGCTGCTGGCAGGTTCTCTTTCGCTCTTGGTGCTCCACTCGCTGCTAGATCTGATCTGTCTACAGGAAATAGCGCTCATGCCTCACTCCTGCTTCGCTCAGGTGCTTTGGCCTTCCTCTTCACCGCTCCATATGCTCCCCCACCTCAGGAGGCTACTGCTGCTGCTACAGCCTCCATTCCAAGCTTCTCAGCTGATGCCGCTAGAACCTTCGCTGCTGCTCATGGACTTGCCGTGAGGTCTGTTGGTGTTCGCGTGGCTGATGCTGCTGAGGCTTTCAGAGTTTCCGTTGCCGGCGGAGCTAGGCCAGCTTTCGCTCCTGCTGATTTGGGACATGGTTTCGGCCTGGCTGAGGTTGAGCTTTACGGTGACGTGGTTCTCCGCTTCGTGTCTTACCCAGATGAGACTGACCTGCCTTTCCTTCCCGGCTTCGAGAGAGTTTCCTCTCCTGGTGCCGTGGATTACGGCCTGACAAGGTTCGACCACGTGGTTGGAAACGTTCCCGAGATGGCTCCAGTGATCGATTACATGAAGGGCTTCCTTGGATTCCATGAGTTCGCCGAGTTCACTGCTGAGGACGTGGGAACCACTGAGTCCGGTTTGAACTCTGTGGTTCTCGCCAACAATTCTGAGGCTGTTTTGCTCCCTCTGAATGAGCCTGTGCATGGAACCAAGAGGAGAAGCCAGATTCAAACTTACCTGGAGTACCACGGTGGCCCTGGAGTTCAGCATATCGCCCTTGCTTCTAATGATGTGTTGCGCACACTCAGAGAGATGCGCGCCAGAACCCCCATGGGAGGTTTCGAGTTCATGGCCCCACCACAGGCTAAGTACTACGAGGGCGTTAGAAGGATTGCTGGAGACGTGTTGAGCGAGGAGCAGATCAAGGAGTGCCAAGAGCTGGGTGTTCTTGTGGATAGGGATGACCAGGGCGTTCTGCTTCAAATTGCCACTAAGCCAGTGGGCGACCGCCCTACATTCTGGCTTGAGATGATTCAAAGAATCGGCTGCATGGAGAAGGATGAGGTTGGACAGGAGTACCAAAAGGGCGGATGCGGTGGCTTCGGAAAGGGTAACTTCAGCGAGTTGTTCAAGTCAATCGAGGACTACGAGAAGAGCCTCGAGGTGAAGCAGTCAGTGGTTGCCCAAAAGTCCTGA
modifications: HPPDm-1-02 Nucleotide Sequence
notes: vector DBN11780
[1]; topramezone 100 g ai/ha (4×)
  Resistance evaluation: Highly resistant
  Classification and statistics of the grade of pesticide damage Grade 0: 16
  Classification and statistics of the grade of pesticide damage Grade 1: 0
  Classification and statistics of the grade of pesticide damage Grade 2: 0
  Classification and statistics of the grade of pesticide damage Grade 3: 0
  Scores: 0
[1]; topramezone 200 g ai/ha (8×)
  Resistance evaluation: Highly resistant
  Classification and statistics of the grade of pesticide damage Grade 0: 16
  Classification and statistics of the grade of pesticide damage Grade 1: 0
  Classification and statistics of the grade of pesticide damage Grade 2: 0
  Classification and statistics of the grade of pesticide damage Grade 3: 0
  Scores: 0
[2]; isoxaflutole 140 g ai/ha (2×)
  Resistance evaluation: Highly resistant
  Classification and statistics of the grade of pesticide damage Grade 0: 16
  Classification and statistics of the grade of pesticide damage Grade 1: 0
  Classification and statistics of the grade of pesticide damage Grade 2: 0
  Classification and statistics of the grade of pesticide damage Grade 3: 0
  Scores: 0
[2]; isoxaflutole 280 g ai/ha (4×)
  Resistance evaluation: Highly resistant
  Classification and statistics of the grade of pesticide damage Grade 0: 12
  Classification and statistics of the grade of pesticide damage Grade 1: 4
  Classification and statistics of the grade of pesticide damage Grade 2: 0
  Classification and statistics of the grade of pesticide damage Grade 3: 0
  Scores: 8
[3]; mesotrione 210 g ai/ha (2×)
  Resistance evaluation: Highly resistant
  Classification and statistics of the grade of pesticide damage Grade 0: 16
  Classification and statistics of the grade of pesticide damage Grade 1: 0
  Classification and statistics of the grade of pesticide damage Grade 2: 0
  Classification and statistics of the grade of pesticide damage Grade 3: 0
  Scores: 0
[3]; mesotrione 420 g ai/ha (4×)
  Resistance evaluation: Highly resistant
  Classification and statistics of the grade of pesticide damage Grade 0: 15
  Classification and statistics of the grade of pesticide damage Grade 1: 1
  Classification and statistics of the grade of pesticide damage Grade 2: 0
  Classification and statistics of the grade of pesticide damage Grade 3: 0
  Scores: 2
